Test results taken from PMC9482650, “Quantitative fragmentomics allow affinity mapping of interactomes” (Nature Communications, 2022).

T1: APBA1_1, Q02410
T1 sequence (Q02410 651-752, limits assumed, looked up): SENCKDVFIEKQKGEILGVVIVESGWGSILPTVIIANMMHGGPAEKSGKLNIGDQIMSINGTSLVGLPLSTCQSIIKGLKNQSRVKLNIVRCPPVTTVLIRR

T2: APBA1_2, Q02410
T2 sequence (Q02410 742-832, limits assumed, looked up): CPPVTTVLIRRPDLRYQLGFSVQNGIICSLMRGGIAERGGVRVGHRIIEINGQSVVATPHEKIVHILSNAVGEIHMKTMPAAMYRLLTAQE

T3: ARHGAP21, Q5T5U3
T3 sequence (Q5T5U3 45-169, limits assumed, looked up): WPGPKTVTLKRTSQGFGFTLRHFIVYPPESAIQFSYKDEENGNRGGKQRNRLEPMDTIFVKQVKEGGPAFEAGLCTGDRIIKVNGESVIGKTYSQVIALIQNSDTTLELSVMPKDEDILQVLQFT

T4: DLG3_3, Q92796
T4 sequence (Q92796 374-475, limits assumed, looked up): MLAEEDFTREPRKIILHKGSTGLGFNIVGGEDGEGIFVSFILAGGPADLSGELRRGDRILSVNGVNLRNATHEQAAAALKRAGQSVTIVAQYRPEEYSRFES

T5: GRIP1_7, Q9Y3R0
T5 sequence (Q9Y3R0 999-1096, limits assumed, looked up): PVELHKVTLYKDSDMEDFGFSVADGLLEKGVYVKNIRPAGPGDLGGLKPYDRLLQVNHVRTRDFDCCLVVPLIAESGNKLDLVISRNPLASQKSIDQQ

T6: HTRA4, P83105
T6 sequence (P83105 378-476, limits assumed, looked up): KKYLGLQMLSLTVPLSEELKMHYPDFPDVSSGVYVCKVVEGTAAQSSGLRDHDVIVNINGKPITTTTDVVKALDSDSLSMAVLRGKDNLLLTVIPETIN

T7: LIN7A, O14910
T7 sequence (O14910 103-200, limits assumed, looked up): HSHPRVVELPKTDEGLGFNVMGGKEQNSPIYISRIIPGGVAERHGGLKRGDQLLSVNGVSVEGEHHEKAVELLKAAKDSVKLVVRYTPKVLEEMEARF

T8: LNX2_2, Q8N448
T8 sequence (Q8N448 334-432, limits assumed, looked up): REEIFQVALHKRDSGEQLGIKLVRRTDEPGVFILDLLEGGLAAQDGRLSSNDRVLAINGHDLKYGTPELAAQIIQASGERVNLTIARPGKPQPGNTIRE

T9: MPP6, Q9NZW5
T9 sequence (Q9NZW5 125-219, limits assumed, looked up): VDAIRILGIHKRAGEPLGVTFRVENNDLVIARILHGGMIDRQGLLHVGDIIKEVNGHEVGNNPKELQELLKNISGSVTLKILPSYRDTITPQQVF

T10: RAPGEF6, Q8TEU7
T10 sequence (Q8TEU7 525-625, limits assumed, looked up): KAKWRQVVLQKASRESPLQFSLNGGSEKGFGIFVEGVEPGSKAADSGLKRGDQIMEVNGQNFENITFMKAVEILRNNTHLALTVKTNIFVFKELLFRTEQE

T11: SNTB1, Q13884
T11 sequence (Q13884 107-205, limits assumed, looked up): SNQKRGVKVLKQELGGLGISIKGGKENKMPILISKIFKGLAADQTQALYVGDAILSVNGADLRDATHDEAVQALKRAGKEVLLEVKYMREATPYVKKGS

T12: TJP3_3, O95049
T12 sequence (O95049 375-456, limits assumed, looked up): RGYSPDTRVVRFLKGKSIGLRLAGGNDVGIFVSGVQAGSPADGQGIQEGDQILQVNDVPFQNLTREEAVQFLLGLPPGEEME


What follows are binders tested against T1, APBA1_1, Q02410 (assay: holdup assay). Settings: plain residues with an end cap or a label only (N-terminal biotin on a linker: ado-ado).
Set-up: key: below the threshold = too weak to quantify, mostly under pKd 3.1 to 4

Row | Binder | pKd
1 | SSGSTSSSRI [ADGRG1, Q9Y653] | below the threshold

Each binder was assayed against T2, APBA1_2, Q02410 (assay: holdup assay). Settings: plain residues with an end cap or a label only (N-terminal biotin on a linker: ado-ado).
Set-up: key: below the threshold = too weak to quantify, mostly under pKd 3.1 to 4

Row | Binder | pKd
2 | SSGSTSSSRI [ADGRG1, Q9Y653] | below the threshold

The binders below were run against T3, ARHGAP21, Q5T5U3 (assay: holdup assay). Settings: plain residues with an end cap or a label only (N-terminal biotin on a linker: ado-ado).
Set-up: key: below the threshold = too weak to quantify, mostly under pKd 3.1 to 4

Row | Binder | pKd
3 | SSGSTSSSRI [ADGRG1, Q9Y653] | below the threshold

These binders were tested against T4, DLG3_3, Q92796 (assay: holdup assay). Settings: plain residues with an end cap or a label only (N-terminal biotin on a linker: ado-ado).
Set-up: key: below the threshold = too weak to quantify, mostly under pKd 3.1 to 4

Row | Binder | pKd
4 | SSGSTSSSRI [ADGRG1, Q9Y653] | 3.64

What follows are binders tested against DLG4_1, P78352 (assay: holdup assay). Settings: plain residues with an end cap or a label only (N-terminal biotin on a linker: ado-ado).
Sequence of DLG4_1, P78352 (P78352 62-152): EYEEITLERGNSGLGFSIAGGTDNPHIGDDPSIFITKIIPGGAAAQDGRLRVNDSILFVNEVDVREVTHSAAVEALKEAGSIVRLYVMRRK
Set-up: key: below the threshold = too weak to quantify, mostly under pKd 3.1 to 4

Row | Binder | pKd
5 | SSGSTSSSRI [ADGRG1, Q9Y653] | below the threshold

The binders below were run against GRASP, Q7Z6J2 (assay: holdup assay). Settings: plain residues with an end cap or a label only (N-terminal biotin on a linker: ado-ado).
Sequence of GRASP, Q7Z6J2 (Q7Z6J2 96-193): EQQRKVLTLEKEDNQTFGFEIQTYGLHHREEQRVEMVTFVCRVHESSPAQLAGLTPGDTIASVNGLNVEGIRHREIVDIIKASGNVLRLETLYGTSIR
Set-up: key: below the threshold = too weak to quantify, mostly under pKd 3.1 to 4

Row | Binder | pKd
6 | SSGSTSSSRI [ADGRG1, Q9Y653] | below the threshold

Each binder was assayed against GRID2IP_1, A4D2P6 (assay: holdup assay). Settings: plain residues with an end cap or a label only (N-terminal biotin on a linker: ado-ado).
Sequence of GRID2IP_1, A4D2P6 (A4D2P6 1-87): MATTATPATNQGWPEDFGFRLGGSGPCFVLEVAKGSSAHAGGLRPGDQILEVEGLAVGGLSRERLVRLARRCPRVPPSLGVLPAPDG
Set-up: key: below the threshold = too weak to quantify, mostly under pKd 3.1 to 4

Row | Binder | pKd
7 | SSGSTSSSRI [ADGRG1, Q9Y653] | below the threshold

Each binder was assayed against T5, GRIP1_7, Q9Y3R0 (assay: holdup assay). Settings: plain residues with an end cap or a label only (N-terminal biotin on a linker: ado-ado).
Set-up: key: below the threshold = too weak to quantify, mostly under pKd 3.1 to 4

Row | Binder | pKd
8 | SSGSTSSSRI [ADGRG1, Q9Y653] | below the threshold

The binders below were run against T6, HTRA4, P83105 (assay: holdup assay). Settings: plain residues with an end cap or a label only (N-terminal biotin on a linker: ado-ado).
Set-up: key: below the threshold = too weak to quantify, mostly under pKd 3.1 to 4

Row | Binder | pKd
9 | SSGSTSSSRI [ADGRG1, Q9Y653] | below the threshold

The binders below were run against Inadl_2, Q8NI35 (assay: holdup assay). Settings: plain residues with an end cap or a label only (N-terminal biotin on a linker: ado-ado).
Sequence of Inadl_2, Q8NI35 (Q8NI35 238-335): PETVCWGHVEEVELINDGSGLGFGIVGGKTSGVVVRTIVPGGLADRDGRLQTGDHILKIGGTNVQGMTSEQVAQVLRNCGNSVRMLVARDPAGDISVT
Set-up: key: below the threshold = too weak to quantify, mostly under pKd 3.1 to 4

Row | Binder | pKd
10 | SSGSTSSSRI [ADGRG1, Q9Y653] | below the threshold

What follows are binders tested against Inadl_9, Q8NI35 (assay: holdup assay). Settings: plain residues with an end cap or a label only (N-terminal biotin on a linker: ado-ado).
Sequence of Inadl_9, Q8NI35 (Q8NI35 1530-1615): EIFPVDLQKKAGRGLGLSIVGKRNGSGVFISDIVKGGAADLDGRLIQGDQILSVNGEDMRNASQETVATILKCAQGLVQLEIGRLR
Set-up: key: below the threshold = too weak to quantify, mostly under pKd 3.1 to 4

Row | Binder | pKd
11 | SSGSTSSSRI [ADGRG1, Q9Y653] | below the threshold

Each binder was assayed against T7, LIN7A, O14910 (assay: holdup assay). Settings: plain residues with an end cap or a label only (N-terminal biotin on a linker: ado-ado).
Set-up: key: below the threshold = too weak to quantify, mostly under pKd 3.1 to 4

Row | Binder | pKd
12 | SSGSTSSSRI [ADGRG1, Q9Y653] | below the threshold

Each binder was assayed against T8, LNX2_2, Q8N448 (assay: holdup assay). Settings: plain residues with an end cap or a label only (N-terminal biotin on a linker: ado-ado).
Set-up: key: below the threshold = too weak to quantify, mostly under pKd 3.1 to 4

Row | Binder | pKd
13 | SSGSTSSSRI [ADGRG1, Q9Y653] | below the threshold

These binders were tested against MAGI1_1, Q96QZ7 (assay: holdup assay). Settings: plain residues with an end cap or a label only (N-terminal biotin on a linker: ado-ado).
Sequence of MAGI1_1, Q96QZ7 (Q96QZ7 1-106): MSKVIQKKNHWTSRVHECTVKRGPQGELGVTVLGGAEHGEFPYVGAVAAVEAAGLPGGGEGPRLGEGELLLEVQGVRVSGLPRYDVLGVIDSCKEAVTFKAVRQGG
Set-up: key: below the threshold = too weak to quantify, mostly under pKd 3.1 to 4

Row | Binder | pKd
14 | SSGSTSSSRI [ADGRG1, Q9Y653] | below the threshold

These binders were tested against T9, MPP6, Q9NZW5 (assay: holdup assay). Settings: plain residues with an end cap or a label only (N-terminal biotin on a linker: ado-ado).
Set-up: key: below the threshold = too weak to quantify, mostly under pKd 3.1 to 4

Row | Binder | pKd
15 | SSGSTSSSRI [ADGRG1, Q9Y653] | below the threshold

The binders below were run against NHERF2_2, Q15599 (assay: holdup assay). Settings: plain residues with an end cap or a label only (N-terminal biotin on a linker: ado-ado).
Sequence of NHERF2_2, Q15599 (Q15599 142-238): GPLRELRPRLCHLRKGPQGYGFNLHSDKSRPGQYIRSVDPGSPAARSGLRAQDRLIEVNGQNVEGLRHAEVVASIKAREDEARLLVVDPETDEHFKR
Set-up: key: below the threshold = too weak to quantify, mostly under pKd 3.1 to 4

Row | Binder | pKd
16 | SSGSTSSSRI [ADGRG1, Q9Y653] | 3.71

Each binder was assayed against NHERF4_1, Q86UT5-2 (assay: holdup assay). Settings: plain residues with an end cap or a label only (N-terminal biotin on a linker: ado-ado).
Sequence of NHERF4_1, Q86UT5-2 (Q86UT5 other isoform, or with tags, fused parts or gaps): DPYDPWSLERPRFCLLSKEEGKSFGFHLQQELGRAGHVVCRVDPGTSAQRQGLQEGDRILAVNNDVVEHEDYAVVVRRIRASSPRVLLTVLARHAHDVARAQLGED
Set-up: key: below the threshold = too weak to quantify, mostly under pKd 3.1 to 4

Row | Binder | pKd
17 | SSGSTSSSRI [ADGRG1, Q9Y653] | below the threshold

The binders below were run against NHERF4_4, Q86UT5 (assay: holdup assay). Settings: plain residues with an end cap or a label only (N-terminal biotin on a linker: ado-ado).
Sequence of NHERF4_4, Q86UT5 (Q86UT5 464-550): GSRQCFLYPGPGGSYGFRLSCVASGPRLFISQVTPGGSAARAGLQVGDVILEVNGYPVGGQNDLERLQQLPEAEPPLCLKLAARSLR
Set-up: key: below the threshold = too weak to quantify, mostly under pKd 3.1 to 4

Row | Binder | pKd
18 | SSGSTSSSRI [ADGRG1, Q9Y653] | below the threshold

What follows are binders tested against NOS1, P29475 (assay: holdup assay). Settings: plain residues with an end cap or a label only (N-terminal biotin on a linker: ado-ado).
Sequence of NOS1, P29475 (P29475 9-101): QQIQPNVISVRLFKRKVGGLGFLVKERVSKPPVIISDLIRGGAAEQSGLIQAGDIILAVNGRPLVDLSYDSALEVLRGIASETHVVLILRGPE
Set-up: key: below the threshold = too weak to quantify, mostly under pKd 3.1 to 4

Row | Binder | pKd
19 | SSGSTSSSRI [ADGRG1, Q9Y653] | below the threshold

Each binder was assayed against PICK1, Q9NRD5 (assay: holdup assay). Settings: plain residues with an end cap or a label only (N-terminal biotin on a linker: ado-ado).
Sequence of PICK1, Q9NRD5 (Q9NRD5 17-115): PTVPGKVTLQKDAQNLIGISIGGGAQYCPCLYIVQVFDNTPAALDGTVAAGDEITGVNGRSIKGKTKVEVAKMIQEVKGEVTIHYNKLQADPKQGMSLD
Set-up: key: below the threshold = too weak to quantify, mostly under pKd 3.1 to 4

Row | Binder | pKd
20 | SSGSTSSSRI [ADGRG1, Q9Y653] | below the threshold

These binders were tested against T10, RAPGEF6, Q8TEU7 (assay: holdup assay). Settings: plain residues with an end cap or a label only (N-terminal biotin on a linker: ado-ado).
Set-up: key: below the threshold = too weak to quantify, mostly under pKd 3.1 to 4

Row | Binder | pKd
21 | SSGSTSSSRI [ADGRG1, Q9Y653] | 3.7

The binders below were run against T11, SNTB1, Q13884 (assay: holdup assay). Settings: plain residues with an end cap or a label only (N-terminal biotin on a linker: ado-ado).
Set-up: key: below the threshold = too weak to quantify, mostly under pKd 3.1 to 4

Row | Binder | pKd
22 | SSGSTSSSRI [ADGRG1, Q9Y653] | below the threshold

What follows are binders tested against TJP1_3, Q07157 (assay: holdup assay). Settings: plain residues with an end cap or a label only (N-terminal biotin on a linker: ado-ado).
Sequence of TJP1_3, Q07157 (Q07157 416-512): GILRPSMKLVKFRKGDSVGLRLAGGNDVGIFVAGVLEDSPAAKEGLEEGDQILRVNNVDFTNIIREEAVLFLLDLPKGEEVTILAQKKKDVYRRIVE
Set-up: key: below the threshold = too weak to quantify, mostly under pKd 3.1 to 4

Row | Binder | pKd
23 | SSGSTSSSRI [ADGRG1, Q9Y653] | below the threshold

These binders were tested against TJP2_1, Q9UDY2 (assay: holdup assay). Settings: plain residues with an end cap or a label only (N-terminal biotin on a linker: ado-ado).
Sequence of TJP2_1, Q9UDY2 (Q9UDY2 24-128): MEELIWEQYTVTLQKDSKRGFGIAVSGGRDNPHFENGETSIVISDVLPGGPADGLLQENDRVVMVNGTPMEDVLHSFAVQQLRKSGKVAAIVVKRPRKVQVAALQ
Set-up: key: below the threshold = too weak to quantify, mostly under pKd 3.1 to 4

Row | Binder | pKd
24 | SSGSTSSSRI [ADGRG1, Q9Y653] | below the threshold

What follows are binders tested against T12, TJP3_3, O95049 (assay: holdup assay). Settings: plain residues with an end cap or a label only (N-terminal biotin on a linker: ado-ado).
Set-up: key: below the threshold = too weak to quantify, mostly under pKd 3.1 to 4

Row | Binder | pKd
25 | SSGSTSSSRI [ADGRG1, Q9Y653] | below the threshold
